Data as given in the supplement of paper PMC9170038.

Test system: MS2 coat protein
Assay: apparent KD of MS2 coat protein; designed switch direction (-1 OFF switch, 1 ON switch): -1; higher = weaker reporter binding
Method in brief: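 An oligonucleotide input, 200 uM small-molecule ligand, or no input was present during titration of SNAP-549-labelled MS2 coat protein, which was doubled from 0.7 or 1.5 nM to 3 µM. Designed RNA switches had been transcribed on Illumina chips by stalled E. coli RNA polymerase. Apparent KD per design is the median over clusters of curves fitted to normalised cluster fluorescence.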

[1] = Eterna round: R95, input ligand: microRNA oligo, concentration not stated
[2] = input ligand: microRNA oligo, concentration not stated
[3] = Eterna round: R95, input ligand: FMN 200 uM
[4] = Eterna round: R95, input ligand: none

| Sequence | apparent KD of MS2 coat protein (input ligand: FMN 200 uM) | apparent KD of MS2 coat protein (input ligand: none) | apparent KD of MS2 coat protein [2] | also measured |
| --- | --- | --- | --- | --- |
| AUACCACGAGGAUAUCGUCUAUUCCACAUGAGGAUCACCCAUGUUAUCCAUGUUUCGUUUCGAGAAGGCGUGUUUU [JR_E5_Sub075] (puzzle: Exclusion 5) |  |  |  | apparent KD of MS2 coat protein [1]: 54.1 nM |
| UACAGUCAUCCUUGUUGUUACAUGAGGAUCACCCAUGUUAGUAUAAUUAAGUUAUGUAAGUUUGUUGUUCGUUUUAU [JR_STOV1_v2_Sub076] (Eterna round: R97, puzzle: Sensor, turn-off variant 1) | 94.2 nM | 101 nM |  |  |
| AGUACUCACACGAAAGUGUUAGUACAAUAAGCUUGUGAAACAUGAGGAUCACCCAUGUCCUCAUAAGCUCGUCUUAU [salish99_TOv2_r3_018] (Eterna round: R96, puzzle: Sensor v3, turn-off variant 2) | 16.2 nM | 18.1 nM | 430 nM |  |
| AGUCCUGGAGUUAGGAUAUGGCGUAUCGCUGCGCUUCAGAAGGGACUUGAGGAUCACCCAAGUAGCCGUGAGGG [salish99_bmod_ex4_r4_008] (Eterna round: R97, puzzle: Brourd's mod of Exclusion 4) | 81.7 nM | 82.4 nM |  |  |
| GGAUCGAAUGUGAGGAUAUGCUGGUCCUUGGAUCAGCAGAAGGCACAUGAGGAUCACCCAUGUGGUUCCGAUCC (Eterna round: R97, puzzle: Brourd's mod of Exclusion 4) | 161 nM | 876 nM |  |  |
| GAAUAGAGAGGAUAUGCAAUGUAGGUAGUACGAUAUAUCUGACAUGAGGAUCACCCAUGUAGAAGGCUCAGAUC [EX2 #7] (Eterna round: R97, puzzle: Exclusion 2) | 40.4 nM | 37.9 nM |  |  |
| AGAUGGCGAGGAUAUACAUGAGGAUCACCCAUGUGAGAAGAUAAAGUGAGGAAGAAAAGUAGAAGGCGCUGUCA [Mat - Exclusion 3 - Mod of Salish D23] (puzzle: Exclusion 3) |  |  |  | apparent KD of MS2 coat protein [3]: 68.3 nM; apparent KD of MS2 coat protein [1]: 44.9 nM; apparent KD of MS2 coat protein [4]: 45.1 nM |
| CGGUGUCAUGUAAGGAUAUCGCAUCCCAGCGGAUACGAGAAGGUACAUGAGGAUCACCCAUGUACGAUAAAAUA [Atzabian] (puzzle: Brourd's mod of Exclusion 4) |  |  |  | apparent KD of MS2 coat protein [1]: 12.5 nM |
| CAGUACUGAGGAUAUACAUGAGGAUCACCCAUGUGUUCCAGCUAGGAAACUAGCGAAAGUAGAAGGCAGUACUG [salish99_ex3_r3_068] (puzzle: Exclusion 3) |  |  |  | apparent KD of MS2 coat protein [1]: 22.9 nM |
| GAUUCACAUGACUGUCUAUACAUGAGGAUCACCCAUGUUUGUUUUUAUUUUUUUUUGCUUUUUAGUCGUCUUAUUAU [1 hard RNA] (Eterna round: R97, puzzle: Sensor, turn-off variant 1) | 37.1 nM | 35.2 nM |  |  |
| UUUAUAUAGUAAGGAUAUGUAUUAUGUUUAUCAACAGAAGGUACUGACAUGAGGAUCACCCAUGUUUUAGUGUGGGCAUGUAGU [JMF's solution 95] (Eterna round: R96, puzzle: Exclusion NG 1) |  |  | 181 nM |  |
| GGAAGAGAGAUAGGAUAUCAGAGGAAGAUGGUGAGAGAGACAUGAGGAUCACCCAUGUGAAGGAAUGAGAAGGGUCAGAAGGAA [EXNG2 V2 h] (Eterna round: R96, puzzle: Exclusion NG 2) | 130 nM | 101 nM | 133 nM |  |
| GAGAAAUGUGUUAGGAUAUCCCGCUAAAGCAGAUAGGAGAAGGAACAUGAGGAUCACCCAUGUAGGGAGGGCCA [Eternabot (Original) Solution 17] (Eterna round: R97, puzzle: Brourd's mod of Exclusion 4) | 192 nM | 67 nM |  |  |
| UAUAUAUAGUAAGGAUAUGUAUAUAUUAUAUAAACAGAAGGUACUGACAUGAGGAUCACCCAUGUUUUAGUGUGGGCAUGUAGA [JMF's solution 60] (Eterna round: R96, puzzle: Exclusion NG 1) |  |  | 53.3 nM |  |
| CAGUACUGAGGAUAUACAUGAGGAUCACCCAUGUGUCCCGGCUAGGAAACUAGCAAAAGUAGAAGGCAGUACUG [Fiskers Ex 3 828 mod 2] (Eterna round: R96, puzzle: Exclusion 3) | 494 nM | 24.1 nM | 21.6 nM |  |
| AAUAGCAAGUAAGAUCCUAACAUGAGGAUCACCCAUGUGCUCGUCUUAUAAAGUACUAUCACGAAAGUGAUAGUACA [Sensor 3, v1 - 47] (puzzle: Sensor v3, turn-off variant 1) |  |  |  | apparent KD of MS2 coat protein [3]: 64.8 nM; apparent KD of MS2 coat protein [1]: 51.4 nM; apparent KD of MS2 coat protein [4]: 74.3 nM |
| GCACGGAGUGUAGGAUAUUAGUGCGAUUAGCACUGAGAAGGACAUGAGGAUCACCCAUGUUCCUCAAUAACAUACCUUCCGUGC [Eli exng1 - 042] (Eterna round: R96, puzzle: Exclusion NG 1) |  |  | 9.5 nM |  |
| UUAGUUUUGCAAGGAUAUGUUUAUUUAUAGUUGCCUCUUACAUGAGGAUCACCCAUGUUUUACUUACAGAAGGUGCAAUGAUUU [JR_ExcNG2_Sub034] (Eterna round: R96, puzzle: Exclusion NG 2) |  |  | 138 nM |  |
| AUCAGCUCGUCAGGAUAUGAACAUGAGGAUCACCCAUGUAAGAUCAAGCUGCUUCGGCAGCAAGUUCAGAAGGGACGAGCUGAU [ENG2/10-B3] (Eterna round: R96, puzzle: Exclusion NG 2) | 169 nM | 112 nM | 93.3 nM |  |
| UACAUGAGGAUCACCCAUGUUUUGUCGUGUAUGGUAUUUAUCUAGGAUAUCAAUUUGAUUAUUUAUGAGAAGGAGAAUAUUAAU [JMF's solution 65] (Eterna round: R96, puzzle: Exclusion NG 3) | 39.1 nM | 39.1 nM | 28.8 nM |  |
| AAGAAACAUGAGGAUCACCCAUGUGAGGAUAUGUAAAAUAAAAUAAAAUAAAUAAUAAACAGAAGGCACAAAGG [Mat - Mod of Hog D17] (puzzle: Exclusion 1) |  |  |  | apparent KD of MS2 coat protein [1]: 58.6 nM |
| ACAUGUGUUGUAGGAUAUAGUGGACAUGAGGAUCACCCAUGUUGAUUCAUGUCUAUGGAAACGUACUAGAAGGACGACAAUAUG [Ex NG2 #18] (Eterna round: R96, puzzle: Exclusion NG 2) | 806 nM | 1050 nM | 875 nM |  |
| UGAAGUAGAGGAUAUACGUGGAAAUAGAUUCAUGUAAAACUACAUGAGGAUCACCCAUGUAGAAGGCUAUAGAU [JR_Ex2_Sub072] (Eterna round: R97, puzzle: Exclusion 2) | 28.4 nM | 49 nM |  |  |
| UGAUUGUUUAACAGAUUAUACAUGAGGAUCACCCAUGUAGGUCCUACGUGCACAUUAUGCAGCUCGUCUUAUUCCCA [Sensor-V1 #72] (Eterna round: R97, puzzle: Sensor, turn-off variant 1) | 35.5 nM | 37.3 nM |  |  |
| GUGGCACUAGUGAGGAUAUGGAAAUUGACAGAUAUCCAGAAGGCACAUGAGGAUCACCCAUGUCGAAUCCAGCA [Eternabot (L1) Solution 81] (Eterna round: R97, puzzle: Brourd's mod of Exclusion 4) | 36.9 nM | 22.8 nM |  |  |
| GGAGAGAGAGGAUAUGGAGGUUGGAACAUGAGGAUCACCCAUGUUAAACCUCAUGACCGACUAGAAGGCUCAGUCC [AK-MS2ROC-r4-exclusion5-9.1] (Eterna round: R97, puzzle: Exclusion 5) | 17.8 nM | 18.9 nM |  |  |
